In patent US20210292392A1:

Molecular target: full length spike (S) protein of SARS-CoV-2 (SARS-CoV-2) (UniProt P0DTC2)
Assay: cell-based or functional assay

VRC01 (antibody)
Neutralizing activity (%) Mean at 0.0228624 µg/ml: 13.2% | Neutralizing activity (%) Mean at 0.0685871 µg/ml: 10.4% | Neutralizing activity (%) Mean at 0.2057613 µg/ml: 14.4% | Neutralizing activity (%) Mean at 0.6172839 µg/ml: 24.9% | Neutralizing activity (%) Mean at 1.851852 µg/ml: 8.1% | Neutralizing activity (%) Mean at 5.555555 µg/ml: 27.1% | Neutralizing activity (%) Mean at 16.66667 µg/ml: 26.6% | Neutralizing activity (%) Mean at 50 µg/ml: 33.9%
